Here are results for three proteins from article PMC4616025, “Identification of a phosphinothricin-resistant mutant of rice glutamine synthetase using DNA shuffling” (Scientific Reports, 2015).

Numbering of substitutions follows the chain as printed. In names and notes the source's numbering stands.

Substrate in the data set: N[C@@H](CCC(=O)O)C(=O)O
The data set is described as follows: purified protein. In kind it is biochemical, Oryza sativa. Particulars: general assay: 5 mM ATP, 30 mM hydroxylamine, 50 mM MgCl2, 100 mM Tris-HCl pH 7.5, 37 °C, Km measured as in a cited method.

B1: OsGS1S (Oryza sativa Japonica Group) (protein)
chain: MASLTDLVNLNLSDTTEKIIAEYIWIGGSGMDLRSKARTLSGPVTDPSKLPKWNYDGSSTGQAPGEDSEVILYPQAIFKDPFRKGNNILVMCDCYTPAGEPIPTNKRHNAAKIFSSPEVASEEPWYGIEQEYTLLQKDINWPLGWPVGGFPGPQGPYYCGIGADKSFGRDIVDSHYKACLYAGINISGINGEVMPGQWEFQVGPSVGISAGDQVWVARYILERITEIAGVVVSFDPKPIPGDWNGAGAHTNYSTKSMRNDGGYEIIKSAIEKLKLRHKEHISAYGEGNERRLTGRHETADINTFSWGVANRGASVRVGRETEQNGKGYFEDRRPASNMDPYIVTSMIAETTIIWKP
notes: full-length, plant-codon-optimized synthetic gene (PTDS), vector pYM4087 with six-histidine tag, expressed in E. coli BL21(DE3), Ni-NTA purified; forward primer atggcttctctcaccga
The term Km denotes the concentration of substrate that gives half-maximal velocity. As for B1, the Km is reported as 1.22 ± 0.011 mM.

B2: OsGS1S (Oryza sativa Japonica Group; R295K) (protein)
chain: B1 chain with R295K
notes: as for B1
As to B2, the Km (stated gain) stood at 8.04 ± 0.015 mM.

B3: OsGS1S (Oryza sativa Japonica Group; A63E/R295K/T293A/V193A) (protein)
chain: B1 chain with A63E, V193A, T293A, R295K
notes: as for B1
Turning to B3, under “stated gain”, the Michaelis-Menten constant (Km) turned out to be 7.99 ± 0.021 mM.
